Laboratory results reported in IntAct's records for PubMed 22582013.

B1: Extracellular serine/threonine protein kinase FAM20C (Homo sapiens), Q8IXL6 (parent)
chain: MKMMLVRRFRVLILMVFLVACALHIALDLLPRLERRGARPSGEPGCSCAQPAAEVAAPGWAQVRGRPGEPPAASSAAGDAGWPNKHTLRILQDFSSDPSSNLSSHSLEKLPPAAEPAERALRGRDPGALRPHDPAHRPLLRDPGPRRSESPPGPGGDASLLARLFEHPLYRVAVPPLTEEDVLFNVNSDTRLSPKAAENPDWPHAGAEGAEFLSPGEAAVDSYPNWLKFHIGINRYELYSRHNPAIEALLHDLSSQRITSVAMKSGGTQLKLIMTFQNYGQALFKPMKQTREQETPPDFFYFSDYERHNAEIAAFHLDRILDFRRVPPVAGRMVNMTKEIRDVTRDKKLWRTFFISPANNICFYGECSYYCSTEHALCGKPDQIEGSLAAFLPDLSLAKRKTWRNPWRRSYHKRKKAEWEVDPDYCEEVKQTPPYDSSHRILDVMDMTIFDFLMGNMDRHHYETFEKFGNETFIIHLDNGRGFGKYSHDELSILVPLQQCCRIRKSTYLRLQLLAKEEYKLSLLMAESLRGDQVAPVLYQPHLEALDRRLRVVLKAVRDCVERNGLHSVVDDDLDTEHRAASAR

Variants of: B1
Settings: with ostp_human SPP1, P10451
Chain of ostp_human SPP1, P10451 (P10451 whole entry): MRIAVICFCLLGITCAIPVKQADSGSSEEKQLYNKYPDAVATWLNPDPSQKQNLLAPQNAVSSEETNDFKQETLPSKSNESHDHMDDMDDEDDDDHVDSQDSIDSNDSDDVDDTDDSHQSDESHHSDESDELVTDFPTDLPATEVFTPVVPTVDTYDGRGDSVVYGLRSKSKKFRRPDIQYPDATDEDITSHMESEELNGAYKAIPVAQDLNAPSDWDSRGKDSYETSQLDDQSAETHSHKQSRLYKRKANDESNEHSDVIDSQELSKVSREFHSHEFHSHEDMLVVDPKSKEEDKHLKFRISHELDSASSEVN

Variant	effect of a mutation on the interaction
G379E	with no effect
I258N;G280R	with no effect
P328S	with no effect
K338R	with no effect

Continued, values first:

effect of a mutation on the interaction	Variant
with no effect	G379R
with no effect	D451N
with no effect	R549W
with no effect	D478A
